Results reported in patent US20230053214.

Molecular target: human tau (441 amino acids), wild-type

B1: human wild-type p38γ (HA-tagged) (protein)
chain: MSSPPPARSGFYRQEVTKTAWEVRAVYRDLQPVGSGAYGAVCSAVDGRTGAKVAIKKLYRPFQSELFAKRAYRELRLLKHMRHENVIGLLDVFTPDETLDDFTDFYLVMPFMGTDLGKLMKHEKLGEDRIQFLVYQMLKGLRYIHAAGIIHRDLKPGNLAVNEDCELKILDFGLARQADSEMTGYVVTRWYRAPEVILNWMRYTQTVDIWSVGCIMAEMITGKTLFKGSDHLDQLKEIMKVTGTPPAEFVQRLQSDEAKNYMKGLPELEKKDFASILTNASPLAVNLLEKMLVLDAEQRVTAGEALAHPYFESLHDTEDEPQVQKYDDSFDDVDRTLDEWKRVTYKEVLSFKPPRQLGARVSKETPL
For B1, the “in vitro kinase assay with tau variants mutated to alanine” value was “confirmed site-specific phosphorylation of S199, T205, S396 and S404 by p38γ” and the “in vitro kinase assay, immunoblotting with phosphorylation site specific antibodies” value was “showed phosphorylation of tau at S199, T205, S396 and S404, but not other sites tested by p38γ”.
